Results taken from article PMC3394726.

Molecular target: chymotrypsin (bovine)

Q: “scabies mite serpin SMSB3, wild type (from UniProt A0A131ZZL5 20-427) (natural protein)” was tested. Which stoichiometry of inhibition (SI) from residual chymotrypsin activity at a 2-120:1 molar excess of SMSB3 did it give?
A: 12.9
